Data reported in patent US9090686B2, “Antibodies for the treatment of HIV” (Pierre Fabre Medicament, priority 2009, dated 2015).

Key:
[1] = tested on: HIV-1 X4 primary isolate KON; experiment: Single cycle neutralization assay in human PBMC, isolate KON; type: cell-based; details: for KON % inhibition of infected cells 90: IC for 90% inhibition, human PBMC
Protocol: (§1) This assay is performed in 36 h using primary isolates KON, MN and 92UG024 concentrated and diluted accordingly to allow the detection 2% infected CD4 T lymphocytes after 2 days of infection.
(§2) Twenty-five microliters of various dilutions of Mabs 515H7, c515H7 and 301aE5 were incubated for 1 h at 37° C. with 25 μl of virus. Human PBMC (25 μl) at 20×10^6 cells/ml were added to the Mab/virus mixture in a 96-well plate (U-bottom, Costar 3599) and cultured for 36 h in RPMI 1640 10% FCS and 20 U/ml IL-2 (R&D Systems, Minneapolis, Minn.).
(§3) After 2 days of culture, HIV-infected lymphocytes were detected by intracellular staining of viral p24 Ag. Cells were fixed and permeabilized using both Cytofix/Cytoperm and Perm/Wash kits (BD Biosciences) according to the manufacturer and stained with a fluorescent anti-p24 Mab (FITC- or PE-anti-p24, clone KC57; Beckman Coulter/Immunotech, Hialeah, Fla.) used at a 1/160 dilution in Perm/Wash solution added for 15 min at 4° C. After washing in PBS with 3% FBS, PBMC were diluted in 300 μl of PBS before flow cytometry analysis (LSRII; BD Biosciences) with DIVA software (BD Biosciences). The percentage of p24-positive cells in the different samples was determined by gating 20,000 events on a living cell population identified by forward- and side-scatter parameters. The living cell subsets were analyzed with the live/dead solution kit (Invitrogen). The p24 Ag-positive value was obtained after subtraction of background events in mock-infected cells.
(§4) The percent of neutralization was defined as the reduction of p24-positive cells compared with control infected wells with no Mab. The neutralizing titer was defined as the concentration of antibody (interpolated between successive dilutions performed in triplicate) that allows a 90% decrease in the percentage of infected cells.
This assay was performed in 36 h using primary isolate KON concentrated and diluted accordingly to allow the detection 2% infected CD4 T lymphocytes after 2 days of infection.
[…] Human PBMC (25 p.1) at 20×10^6 cells/ml were added to the Mab/virus mixture in a 96-well plate (U-bottom, Costar 3599) and cultured for 36 h in RPMI 1640 10% FCS and 20 U/ml IL-2 (R&D Systems, Minneapolis, Minn.).
as §4, with “[…]” for “a 90%”

[2] = tested on: HIV-1 X4 primary isolate MN; experiment: Single cycle neutralization assay in human PBMC, isolate MN; type: cell-based; parameters: MN % inhibition of infected cells 90 / MN % inhibition of infected cells 80: unit not given here; details: for MN % inhibition of infected cells 80: IC for 80% inhibition; for MN % inhibition of infected cells 80 / MN % inhibition of infected cells 90: human PBMC; for MN % inhibition of infected cells 90: IC for 90% inhibition
Protocol: as §1, §2, §3, §4

NIH3T3 cells = experiment: FACS binding to parent NIH3T3 cells; details: for binding to parent NIH3T3 cells (in words): FACS; for NIH3T3 (MFI): Mab 10 μg/ml, Mean Fluorescence Intensity by FACS
Protocol: (§5) NIH3T3 and NIH3T3-hCXCR4 transfected cells were incubated with 10 μg/ml of monoclonal antibodies 515H7 and 301aE5. The cells were then washed with 1% BSA/PBS/0.01% NaN3. Next, Alexa-labeled secondary antibodies were added to the cells and were allowed to incubate at 4° C. for 20 min. The cells were then washed again two times. Following the second wash, FACS analysis was performed.
as §5, with “NIH3T3-hCXCR4” for “NIH3T3 and NIH3T3-hCXCR4”, “a dose range” for “10 μg/ml”, “antibody c515H7 from 0 μg/ml to 10 μg/ml.” for “antibodies 515H7 and 301aE5.”, “1%BSA/PBS/0.01%” for “1% BSA/PBS/0.01%”
NIH3T3, NIH3T3-hCXCR4 transfected were incubated with 0 to 10 μg/mL of humanized Mabs 515H7 (hz515H7 VH1 D76N VL2, hz515H7 VH1 D76N VL2.1, hz515H7 VH1 D76N VL2.2, hz515H7 VH1 D76N VL2.3) for 20 min at 4° C. in the dark in 100 μl Facs buffer. After 3 washing in Facs buffer, cells were incubated with the secondary antibody, a goat anti-human Alexa 488 (dilution 1/500), for 20 minutes at 4° C. in the dark. After 3 washing in Facs buffer, propidium iodide was added in each well and only viable cells were analyzed by Facs. At least 5000 viable cells were assessed to evaluate the mean value of fluorescence intensity for each condition.

[3] = tested on: HIV-1 primary isolate 89.6 (dual X4/R5 virus); experiment: Single cycle neutralization assay in human PBMC, isolate 89.6; type: cell-based
Protocol: This assay is performed in 36 h using primary isolate 89.6 concentrated and diluted accordingly to allow the detection 2% infected CD4 T lymphocytes after 2 days of infection.
as §2
as §3, with “FL)” for “Fla.)”
as §4

Molecule	inhibition of HIV-1 X4 KON primary isolate replication in PBMC (in words) [1]	KON % inhibition of infected cells 90 [1] [µg/mL]	inhibition of HIV-1 X4 MN primary isolate replication in PBMC (in words) [2]	MN % inhibition of infected cells 80 [2]	MN % inhibition of infected cells 90 [2]	binding to parent NIH3T3 cells (in words) (NIH3T3 cells)	NIH3T3 (MFI) (NIH3T3 cells)	inhibition of HIV-1 89.6 primary isolate replication in PBMC (in words) [3]
515H7: murine anti-CXCR4 monoclonal antibody; light chain variable domain SEQ ID No. 7, heavy chain variable domain SEQ ID No. 8 (antibody, listed as Mus musculus, V domains shown) VH: EVNLVESGGGLVQPGGSLRLSCATSGFTFTDNYMSWVRQPPGKALEWLGFIRNKANGYTTDYSASVRGRFTISRDNSQSILYLQMNALRAEDSATYYCARDVGSNYFDYWGQGTTLTVSS VL: DIVMSQSPSSLAVSAGEKVTMSCKSSQSLFNSRTRKNYLAWYQQKPGQSPKLLIYWASARDSGVPARFTGSGSETYFTLTISRVQAEDLAVYYCMQSFNLRTFGGGTKLEIK	able to inhibit	15	able to inhibit	1.5	10	no recognition	16	able to inhibit
301aE5: murine anti-CXCR4 monoclonal antibody; light chain variable domain SEQ ID No. 34, heavy chain variable domain SEQ ID No. 35 (antibody, listed as Mus musculus, V domains shown) VH: QVQLKESGPGLVAPSQSLSITCTVSGFSLTDYGVYWVRQPPGKGLEWLGMIWGDGTTDYNSALKSRLSISKDNSKSQVFLKMNTLQTDDTARYYCARGRQFGFDYWGQGTTLTVSS VL: DIVMSQSPSSLAVSAGEKVTMRCKSSQSLFNSRTRKNYLAWYQQKPGQSPKLLIFWASIRESGVPDRFTGSGSGTDFTLTISSVQAEDLAVYYCKQSYNLRTFGGGTKLEIK	able to inhibit	>150	able to inhibit	150	>150	no recognition	21	able to inhibit
c515H7: chimeric antibody 515H7: murine variable domains fused to human Ckappa and IgG1/IgG2/IgG4 constant domains; isotype tested not stated (antibody, V domains shown) VH: EVNLVESGGGLVQPGGSLRLSCATSGFTFTDNYMSWVRQPPGKALEWLGFIRNKANGYTTDYSASVRGRFTISRDNSQSILYLQMNALRAEDSATYYCARDVGSNYFDYWGQGTTLTVSS VL: DIVMSQSPSSLAVSAGEKVTMSCKSSQSLFNSRTRKNYLAWYQQKPGQSPKLLIYWASARDSGVPARFTGSGSETYFTLTISRVQAEDLAVYYCMQSFNLRTFGGGTKLEIK	able to inhibit	20	able to inhibit	1	15	No binding was detected	–	able to inhibit
